Test results: doi:10.1101/2024.12.16.628271

What was measured:
[1] = molecular target: Corynebacterium glutamicum PafA (proteasome accessory factor A; Pup ligase) (Corynebacterium glutamicum) (UniProt Q8NQE1); experiment: SEC-MALS
[2] = molecular target: Corynebacterium glutamicum PafA (proteasome accessory factor A; Pup ligase) (Corynebacterium glutamicum) (UniProt Q8NQE1); experiment: HDX-MS
[3] = molecular target: Corynebacterium glutamicum PafA (proteasome accessory factor A; Pup ligase) (Corynebacterium glutamicum) (UniProt Q8NQE1); experiment: SEC

Corynebacterium glutamicum PafA (proteasome accessory factor A; Pup ligase) (from UniProt Q8NQE1 1-482) (enzyme)
stoichiometry N [1]: 2
average k open of PafA dimer dissociation (HDX-MS, EX1) [2]: 0.06 h⁻¹
Kd [3]: > 1.1 mM
koff [3]: 4.72e-05 s⁻¹
